The record followed here is paper PMC8504119.

For this assay, the target named is tetrameric biotin non-binding streptavidin 'Dead' (SA-4D) (UniProt P22629). Put plainly: SDS-PAGE without boiling; refolded, purified SA-A and SA-D; samples not subjected to thermal denaturation keep the tetramer.

Broadly, the stoichiometry N is the number of molecules, sites or subunits per partner or assembly. As to “tetrameric biotin non-binding streptavidin 'Dead' (SA-4D) (from UniProt P22629 25-183) (natural protein)”, the stoichiometry N is 4.
